Assay results from IntAct's records for PubMed 25066297.

B1: Probable thioesterase PNKD (Homo sapiens), Q8N490 (parent)
chain: MAAVVAATALKGRGARNARVLRGILAGATANKASHNRTRALQSHSSPEGKEEPEPLSPELEYIPRKRGKNPMKAVGLAWYSLYTRTWLGYLFYRQQLRRARNRYPKGHSKTQPRLFNGVKVLPIPVLSDNYSYLIIDTQAQLAVAVDPSDPRAVQASIEKEGVTLVAILCTHKHWDHSGGNRDLSRRHRDCRVYGSPQDGIPYLTHPLCHQDVVSVGRLQIRALATPGHTQGHLVYLLDGEPYKGPSCLFSGDLLFLSGCGRTFEGNAETMLSSLDTVLGLGDDTLLWPGHEYAEENLGFAGVVEPENLARERKMQWVQRQRLERKGTCPSTLGEERSYNPFLRTHCLALQEALGPGPGPTGDDDYSRAQLLEELRRLKDMHKSK

Variants of: B1
Settings: with mk03_human MAPK3, P27361
Sequence of mk03_human MAPK3, P27361 (P27361 whole entry): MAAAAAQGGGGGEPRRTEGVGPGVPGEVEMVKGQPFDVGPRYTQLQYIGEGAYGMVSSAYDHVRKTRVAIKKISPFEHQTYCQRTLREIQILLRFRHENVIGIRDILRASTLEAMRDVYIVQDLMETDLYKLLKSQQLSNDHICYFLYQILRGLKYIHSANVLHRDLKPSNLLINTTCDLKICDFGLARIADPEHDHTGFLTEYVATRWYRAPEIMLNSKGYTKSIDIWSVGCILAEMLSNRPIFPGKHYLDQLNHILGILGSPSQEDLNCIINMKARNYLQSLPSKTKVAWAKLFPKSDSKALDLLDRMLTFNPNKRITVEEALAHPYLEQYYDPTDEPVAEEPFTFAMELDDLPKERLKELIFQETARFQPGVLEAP

Variant	effect of a mutation on the interaction
MAAVVAATALKGRGARNARVLRGILAGATANKASHNRTRALQSHSAPEGKEEPEPLSPELEYIPRKRGKNPMKAVGLAWYSLYTRTWLGYLFYRQQLRRARNRYPKGHSKTQPRLFNGVKVLPIPVLSDNYSYLIIDTQAQLAVAVDPSDPRAVQASIEKEGVTLVAILCTHKHWDHSGGNRDLSRRHRDCRVYGSPQDGIPYLTHPLCHQDVVSVGRLQIRALATPGHTQGHLVYLLDGEPYKGPSCLFSGDLLFLSGCGRTFEGNAETMLSSLDTVLGLGDDTLLWPGHEYAEENLGFAGVVEPENLARERKMQWVQRQRLERKGTCPSTLGEERSYNPFLRTHCLALQEALGPGPGPTGDDDYSRAQLLEELRRLKDMHKSK [S46A]	disrupting interaction
